From patent EP4786497A1 (Astellas Pharma Inc., dated 2026) come the findings set out here.

Assay [1] concerns the target T1, human MerTK-His protein (human, UniProt Q12866 21-505).
T1 construct: range 21-505; Made in ExpiCHO-S cells; also called protein of human MerTK fused with His tag
T1 sequence: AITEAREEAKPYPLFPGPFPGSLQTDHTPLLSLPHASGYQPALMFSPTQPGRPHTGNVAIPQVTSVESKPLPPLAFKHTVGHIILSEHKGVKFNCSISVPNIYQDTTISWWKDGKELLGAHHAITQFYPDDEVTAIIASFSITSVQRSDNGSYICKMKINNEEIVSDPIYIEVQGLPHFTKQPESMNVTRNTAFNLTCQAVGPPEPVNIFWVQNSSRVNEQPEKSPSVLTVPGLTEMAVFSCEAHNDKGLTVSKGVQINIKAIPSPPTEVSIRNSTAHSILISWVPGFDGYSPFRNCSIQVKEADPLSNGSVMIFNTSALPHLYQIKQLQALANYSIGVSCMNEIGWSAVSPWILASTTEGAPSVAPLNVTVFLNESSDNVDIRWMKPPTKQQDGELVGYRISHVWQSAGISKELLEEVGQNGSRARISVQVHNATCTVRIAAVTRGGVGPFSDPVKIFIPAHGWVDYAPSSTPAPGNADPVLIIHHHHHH
Briefly: ELISA, human MerTK-His immobilized, same method. A general note: An ELISA detects its analyte on a solid surface through an enzyme-linked reagent.

The target of assay [2] is T2, human MerTK-human Fc fusion protein (human, UniProt Q12866 21-505).
T2 construct: range 21-505; Made in ExpiCHO-S cells; also called human MerTK-Fc protein; MerTK-Fc fusion protein; not shown: human IgG1 Fc as encoded by the pFUSE-hIgG1-Fc1 vector (InvivoGen)
T2 sequence (looked up): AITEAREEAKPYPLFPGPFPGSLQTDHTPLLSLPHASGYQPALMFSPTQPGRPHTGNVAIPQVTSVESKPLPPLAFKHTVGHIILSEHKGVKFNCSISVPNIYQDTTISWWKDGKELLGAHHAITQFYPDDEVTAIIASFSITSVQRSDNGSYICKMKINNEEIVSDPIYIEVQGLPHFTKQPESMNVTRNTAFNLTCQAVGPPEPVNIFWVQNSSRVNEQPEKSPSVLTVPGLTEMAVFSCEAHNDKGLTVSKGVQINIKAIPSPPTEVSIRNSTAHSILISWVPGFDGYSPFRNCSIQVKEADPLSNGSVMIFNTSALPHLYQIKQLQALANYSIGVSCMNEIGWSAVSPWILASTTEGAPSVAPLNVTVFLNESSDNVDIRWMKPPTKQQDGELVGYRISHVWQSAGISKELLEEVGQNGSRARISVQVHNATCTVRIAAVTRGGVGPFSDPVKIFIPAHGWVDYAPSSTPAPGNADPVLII
Briefly: ELISA, MerTK protein immobilized at 1 µg/mL.

Assay [3] deals with T3, mouse MerTK-human Fc fusion protein (mouse; human, UniProt Q60805 19-497).
T3 construct: range 19-497; Made in ExpiCHO-S cells; also called protein of mouse MerTK fused with human Fc; not shown: human IgG1 Fc as encoded by the pFUSE-hIgG1-Fc1 vector (InvivoGen)
T3 sequence (looked up): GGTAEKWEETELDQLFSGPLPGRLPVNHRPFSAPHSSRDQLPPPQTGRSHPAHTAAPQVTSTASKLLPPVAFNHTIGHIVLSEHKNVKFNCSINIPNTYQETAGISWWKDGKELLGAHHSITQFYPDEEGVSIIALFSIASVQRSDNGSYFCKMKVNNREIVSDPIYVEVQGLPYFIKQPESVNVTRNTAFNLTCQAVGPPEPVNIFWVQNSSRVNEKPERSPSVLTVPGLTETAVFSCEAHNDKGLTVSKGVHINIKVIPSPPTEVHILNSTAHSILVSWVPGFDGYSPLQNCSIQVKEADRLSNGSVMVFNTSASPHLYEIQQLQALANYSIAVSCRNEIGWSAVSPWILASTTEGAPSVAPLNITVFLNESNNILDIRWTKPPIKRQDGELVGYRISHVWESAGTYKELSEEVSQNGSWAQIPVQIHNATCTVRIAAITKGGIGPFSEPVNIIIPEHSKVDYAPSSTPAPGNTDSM
Briefly: ELISA, MerTK protein immobilized at 1 µg/mL.

The target in assay [4] is T1, human MerTK-His protein. Briefly: ELISA, human MerTK-His immobilized at 1 µg/mL.
Assay [5] deals with T2, human MerTK-human Fc fusion protein. Briefly: ELISA, human MerTK-Fc immobilized at 1 µg/mL.
Assay [6] addresses misfolding-treated recombinant human TTR V30M protein (human, UniProt P02766 21-147). Briefly: ELISA, misTTR immobilized at 2 µg/mL.

B1: tA3-20.3 (antibody, human IgG1, lambda, L234A L235A)
heavy: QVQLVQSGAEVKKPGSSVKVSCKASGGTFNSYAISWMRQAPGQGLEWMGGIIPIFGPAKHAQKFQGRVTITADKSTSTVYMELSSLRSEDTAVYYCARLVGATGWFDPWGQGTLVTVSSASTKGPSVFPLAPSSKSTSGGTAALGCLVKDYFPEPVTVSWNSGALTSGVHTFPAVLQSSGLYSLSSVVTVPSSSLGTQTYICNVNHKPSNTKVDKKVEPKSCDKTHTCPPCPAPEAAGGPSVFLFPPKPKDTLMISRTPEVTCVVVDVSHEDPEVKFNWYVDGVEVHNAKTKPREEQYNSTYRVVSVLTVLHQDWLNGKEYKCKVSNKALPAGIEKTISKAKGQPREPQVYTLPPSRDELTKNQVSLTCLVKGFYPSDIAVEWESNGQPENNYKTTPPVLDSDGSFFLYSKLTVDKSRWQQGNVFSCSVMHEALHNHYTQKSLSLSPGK
light: NFMLTQPHSVSESPGKTVNISCTRSSGSIATNYVQWYQQRPGSSPTTVIYEDNQRPSGVPDRFSGSIDSSSNSASLTISGLKTEDEAVYHCQSYDSSNVVFGGGTKLTVLGQPKAAPSVTLFPPSSEELQANKATLVCLISDFYPGAVTVAWKADSSPVKAGVETTTPSKQSNNKYAASSYLSLTPEQWKSHRSYSCQVTHEGSTVEKTVAPTECS
For B1, in the assay with human MerTK-His protein [1], the binding result is on record as “binds”.

B2: tA3-20.4 (antibody, human IgG1, lambda, L234A L235A)
heavy: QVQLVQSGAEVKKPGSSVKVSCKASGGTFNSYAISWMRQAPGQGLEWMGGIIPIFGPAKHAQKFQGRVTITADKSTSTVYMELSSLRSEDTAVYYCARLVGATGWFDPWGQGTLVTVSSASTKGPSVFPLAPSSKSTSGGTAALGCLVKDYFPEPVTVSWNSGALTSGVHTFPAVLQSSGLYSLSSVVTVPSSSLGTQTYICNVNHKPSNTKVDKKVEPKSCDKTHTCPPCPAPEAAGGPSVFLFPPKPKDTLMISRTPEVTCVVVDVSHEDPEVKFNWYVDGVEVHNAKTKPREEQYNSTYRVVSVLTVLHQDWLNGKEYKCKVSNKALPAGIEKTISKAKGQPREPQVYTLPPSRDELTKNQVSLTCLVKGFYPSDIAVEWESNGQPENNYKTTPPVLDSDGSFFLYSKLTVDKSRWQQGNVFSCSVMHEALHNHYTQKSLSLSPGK
light: NFMLTQPHSVSESPGKTVTISCTRSSGSIATNYVQWYQQRPGSSPTTVIYEDNQRPSGVPDRFSGSIDSSSNSASLTISGLKTEDEAVYHCQSYDSSNVVFGGGTKLTVLGQPKAAPSVTLFPPSSEELQANKATLVCLISDFYPGAVTVAWKADSSPVKAGVETTTPSKQSNNKYAASSYLSLTPEQWKSHRSYSCQVTHEGSTVEKTVAPTECS
On to B2, for which, in the assay with human MerTK-His protein [1], the binding result is on record as “binds”.

B3: tA3-20.5 (antibody, human IgG1, lambda, L234A L235A)
heavy: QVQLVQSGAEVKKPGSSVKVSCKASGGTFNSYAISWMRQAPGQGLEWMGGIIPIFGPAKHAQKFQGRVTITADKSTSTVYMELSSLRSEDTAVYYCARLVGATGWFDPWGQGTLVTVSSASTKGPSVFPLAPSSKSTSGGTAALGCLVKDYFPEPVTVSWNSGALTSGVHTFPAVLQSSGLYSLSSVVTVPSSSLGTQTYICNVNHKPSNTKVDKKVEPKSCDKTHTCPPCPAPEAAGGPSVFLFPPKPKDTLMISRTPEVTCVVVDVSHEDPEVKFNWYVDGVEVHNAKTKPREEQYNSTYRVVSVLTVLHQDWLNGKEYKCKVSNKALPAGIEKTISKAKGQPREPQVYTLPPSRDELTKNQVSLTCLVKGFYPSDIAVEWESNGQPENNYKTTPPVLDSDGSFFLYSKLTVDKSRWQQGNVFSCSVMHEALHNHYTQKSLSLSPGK
light: NFMLTQPHSVSESPGKTVSISCTRSSGSIATNYVQWYQQRPGSSPTTVIYEDNQRPSGVPDRFSGSIDSSSNSASLTISGLKTEDEAVYHCQSYDSSNVVFGGGTKLTVLGQPKAAPSVTLFPPSSEELQANKATLVCLISDFYPGAVTVAWKADSSPVKAGVETTTPSKQSNNKYAASSYLSLTPEQWKSHRSYSCQVTHEGSTVEKTVAPTECS
Consider B3, for which the binding result in the assay with human MerTK-His protein [1] is recorded as “binds”.

B4: tA3-20 (antibody, human IgG1, lambda, L234A L235A)
heavy: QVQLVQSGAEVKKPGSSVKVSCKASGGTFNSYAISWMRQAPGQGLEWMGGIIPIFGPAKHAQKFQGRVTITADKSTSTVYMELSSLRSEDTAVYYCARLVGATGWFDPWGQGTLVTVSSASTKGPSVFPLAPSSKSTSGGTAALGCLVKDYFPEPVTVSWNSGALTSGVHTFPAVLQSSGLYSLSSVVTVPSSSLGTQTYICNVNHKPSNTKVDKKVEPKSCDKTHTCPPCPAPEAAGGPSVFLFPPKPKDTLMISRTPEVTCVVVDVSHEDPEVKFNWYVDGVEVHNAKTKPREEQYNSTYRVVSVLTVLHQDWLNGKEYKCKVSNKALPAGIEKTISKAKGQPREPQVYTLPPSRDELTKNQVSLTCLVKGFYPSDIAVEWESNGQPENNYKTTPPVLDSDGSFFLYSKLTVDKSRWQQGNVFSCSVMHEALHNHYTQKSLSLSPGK
light: FMLTQPHSVSESPGKTVNISCTRSSGSIATNYVQWYQQRPGSSPTTVIYEDNQRPSGVPDRFSGSIDSSSNSASLTISGLKTEDEAVYHCQSYDSSNVVFGGGTKLTVLGQPKAAPSVTLFPPSSEELQANKATLVCLISDFYPGAVTVAWKADSSPVKAGVETTTPSKQSNNKYAASSYLSLTPEQWKSHRSYSCQVTHEGSTVEKTVAPTECS
notes: human lambda constant region; also called fully human anti-MerTK antibody; anti-MerTK agonist antibody tA3-20
Regarding B4, the binding result (in assay [2]; in assay [3]; with human MerTK-His protein [4]) was “binds” in each case.

B5: tA3-20.1 (antibody, human IgG1, lambda, L234A L235A)
heavy: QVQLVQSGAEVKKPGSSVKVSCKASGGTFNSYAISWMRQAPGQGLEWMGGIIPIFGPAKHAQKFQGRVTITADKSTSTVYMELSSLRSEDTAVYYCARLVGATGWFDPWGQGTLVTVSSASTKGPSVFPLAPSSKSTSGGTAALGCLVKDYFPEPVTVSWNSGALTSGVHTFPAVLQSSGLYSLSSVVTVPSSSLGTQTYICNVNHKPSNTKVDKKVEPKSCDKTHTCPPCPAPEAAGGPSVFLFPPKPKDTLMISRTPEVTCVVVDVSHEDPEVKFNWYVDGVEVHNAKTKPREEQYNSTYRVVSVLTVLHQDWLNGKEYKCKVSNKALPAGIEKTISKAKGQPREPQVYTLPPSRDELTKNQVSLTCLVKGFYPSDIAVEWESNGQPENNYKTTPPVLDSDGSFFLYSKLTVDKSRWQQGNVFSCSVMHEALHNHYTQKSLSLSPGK
light: FMLTQPHSVSESPGKTVTISCTRSSGSIATNYVQWYQQRPGSSPTTVIYEDNQRPSGVPDRFSGSIDSSSNSASLTISGLKTEDEAVYHCQSYDSSNVVFGGGTKLTVLGQPKAAPSVTLFPPSSEELQANKATLVCLISDFYPGAVTVAWKADSSPVKAGVETTTPSKQSNNKYAASSYLSLTPEQWKSHRSYSCQVTHEGSTVEKTVAPTECS
Turning to B5, in the assay with human MerTK-His protein [4], the binding result is “binds”.

B6: tA3-20.2 (antibody, human IgG1, lambda, L234A L235A)
heavy: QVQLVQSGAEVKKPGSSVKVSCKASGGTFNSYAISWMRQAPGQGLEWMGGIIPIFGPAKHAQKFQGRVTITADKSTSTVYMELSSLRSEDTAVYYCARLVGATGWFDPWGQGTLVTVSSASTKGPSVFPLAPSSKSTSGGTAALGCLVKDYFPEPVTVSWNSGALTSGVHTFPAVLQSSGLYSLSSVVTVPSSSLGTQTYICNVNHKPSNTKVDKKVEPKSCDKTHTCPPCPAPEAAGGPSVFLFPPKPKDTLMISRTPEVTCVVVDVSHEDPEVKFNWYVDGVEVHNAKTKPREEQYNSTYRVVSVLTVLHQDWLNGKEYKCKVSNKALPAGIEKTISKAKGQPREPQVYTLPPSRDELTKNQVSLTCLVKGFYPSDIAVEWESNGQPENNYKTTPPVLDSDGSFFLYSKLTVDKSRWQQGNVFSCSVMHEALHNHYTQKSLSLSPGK
light: FMLTQPHSVSESPGKTVSISCTRSSGSIATNYVQWYQQRPGSSPTTVIYEDNQRPSGVPDRFSGSIDSSSNSASLTISGLKTEDEAVYHCQSYDSSNVVFGGGTKLTVLGQPKAAPSVTLFPPSSEELQANKATLVCLISDFYPGAVTVAWKADSSPVKAGVETTTPSKQSNNKYAASSYLSLTPEQWKSHRSYSCQVTHEGSTVEKTVAPTECS
B6: the binding result with human MerTK-His protein [4] is “binds”.

B7: tA-009 (bispecific antibody, mouse IgG2a)
heavy: QVQLVQSGAEVKKPGSSVKVSCKASGGTFNSYAISWMRQAPGQGLEWMGGIIPIFGPAKHAQKFQGRVTITADKSTSTVYMELSSLRSEDTAVYYCARLVGATGWFDPWGQGTLVTVSSAKTTAPSVYPLAPVCGDTTGSSVTLGCLVKGYFPEPVTLTWNSGSLSSGVHTFPAVLQSDLYTLSSSVTVTSSTWPSQSITCNVAHPASSTKVDKKIEPRGPTIKPCPPCKCPAPNAAGGPSVFIFPPKIKDVLMISLSPIVTCVVVDVSEDDPDVQISWFVNNVEVHTAQTQTHREDYNSTLRVVSALPIQHQDWMSGKEFKCKVNNKDLAAPIERTISKPKGSVRAPQVYVLPPPEKEMTKKQVSLTCLVKDFMPEDIYVEWTNNGKTELNYKNTEPVLKSDGSYFMYSKLTVEKKNWVERNSYSCSVVHEGLHNHHTTKSFSRTPGK
light: NFMLTQPHSVSESPGKTVNISCTRSSGSIATNYVQWYQQRPGSSPTTVIYEDNQRPSGVPDRFSGSIDSSSNSASLTISGLKTEDEAVYHCQSYDSSNVVFGGGTKLTVLGQPKSSPSVTLFPPSSEELETNKATLVCTITDFYPGVVTVDWKVDGTPVTQGMETTQPSKQSNNKYMASSYLTLTARAWERHSSYSCQVTHEGHTVEKSLSRADCS
chain: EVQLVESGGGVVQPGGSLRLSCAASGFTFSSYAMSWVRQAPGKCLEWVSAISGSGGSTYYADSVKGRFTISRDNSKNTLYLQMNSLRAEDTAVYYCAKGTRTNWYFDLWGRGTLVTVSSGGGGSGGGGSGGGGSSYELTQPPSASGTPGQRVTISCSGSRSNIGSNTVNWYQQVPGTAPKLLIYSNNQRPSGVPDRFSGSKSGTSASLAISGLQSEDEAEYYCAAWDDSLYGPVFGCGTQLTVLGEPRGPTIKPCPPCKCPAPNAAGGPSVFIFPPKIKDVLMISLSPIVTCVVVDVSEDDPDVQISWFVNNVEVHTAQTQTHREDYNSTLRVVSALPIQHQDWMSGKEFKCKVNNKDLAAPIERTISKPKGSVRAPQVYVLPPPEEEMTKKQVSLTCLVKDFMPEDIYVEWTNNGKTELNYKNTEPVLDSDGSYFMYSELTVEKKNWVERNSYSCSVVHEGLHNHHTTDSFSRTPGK
notes: also called mouse-type anti-MerTK-anti-TTR bispecific antibody
Consider B7, for which the binding result in assay [5] and in assay [6] was “binds” each time.
